Experimental data published in a protein production outcome set (Wang et al. 2014).

Assay: label from the status in PepcDB records
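Further: failed if final PepcDB status was selected cloned or expressed and not failed if soluble or beyond.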

Sequence | protein production
MQPTGNQIQQNQQQQQQLIMRVPKQEVSVSGAARRYVQQAPPNRPPRQNHQNGAIGGKKSSVTIQEVPNNAYLETLNKSGNNKVDDDKLPVFLIKLWNIVEDPNLQSIVHWDDSGASFHISDPYLFGRNVLPHFFKHNNMNSMVRQLNMYGFRKMTPLSQGGLTRTESDQDHLEFSHPCFVQGRPELLSQIKRK | not failed
MNEYFFPKLTAVEALAPYRLRTTWSTGEVLEVDVGDILRKIPDLAPILDPEAFARVHIAEWEGSVEWFDTEFGRDNVYAWAKEQAGEVSHEMFGDWMHRNNLSLTTAAEALGISRRMVSYYRTAHKIIPRTIWLACLGWEATRPETKTLPRTLPAAYAKGVSASLS | not failed
GEGIQPSKKLITRDYKVKEFNKIDAGTVGNIYYTQSTDGKTDLQIYGPDNIVALIQVAVKDNTLFLSIDKSKKVRNFKKMKITITSPTLNGISFKGVGDVHIENGLTTDNLDIESKGVGNVDIQSLTCQKLNVQSMGVGDVKLEGTAQIAALHSKGVGNIEAGNLRANAVEASSQGVGDITCNATESIDAAVRGVGSIKYKGSPTIKSLSKKGVGTIKNI | not failed
METYLEIETLIKRIFNSFRHEVEAVLDKRLSGSEYRVLSLISSGLTKTSDLAKTLDVSASHITAITDTLVEEKLITRHRSEVDRRIIELKLTSNAEEFVKEIDKKKKEMIVKRFAVFSEYEQAEFRKLLKKLADGSQSNK | failed
MADLYTVVSSIILLFIVLDPVGVSPYVASIVARRPEGERERIVRTALASAGAILVAFTLIGVAVLDILGVSMDEFKVAAGLLLLIYATADLFEIKIGYSEPSGDEVAIFPLATPLLAGPGSIATVMYIMGSSGIAVALIAILVNLVLAYPILHASLKLVRLLGRHGSLLVAKFTAFLMVGFAVSIIFDGLRGIVPGVFS | failed
MIRKWDTKDTAPLLALWLDSTIHAHPFISESYWRDSVAVVRDVYLPAASTWVWEQDGELKGFVSVLDSRFVGALFVAPGATRQGIGRALLDEVKQHYAWLSLEVYQKNESAVSFYHAQGFRIEDCAWQDDTQHPTWIMRWPA | not failed
SLEPAQANMDISTGHMILAYMEDHLRNRDRLAKEWQALCAYQAEPNTCATAQGEGNIKKNRHPDFLPYDHARIKLKVESSPSRSDYINASPIIEHDPRMPAYIATQGPLSHTIADFWQMVWESGCTVIVMLTPLVEDGVKQCDRYWPDEGASLYHVYEVNLVSEHIWCEDFLVRSFYLKNVQTQETRTLTQFHFLSWPAEGTPASTRPLLDFRRKVNKCYRGRSCPIIVHCSDGAGRTGTYILIDMVLNRMAKGVKEIDIAATLEHVRDQRPGLVRSKDQFEFALTAVAEEVNAILKALPQ | not failed
MIQQLLVTFPPMLFGAQALLTLLLIKGDICPGQRGRLHKMLPAIGVLWLAVASLRIEAFMVVFAIFYFYSQVQTKKTREKGPLWALHLANGLAFAYVSIQVFEQPNWPASAAMAVMIFFLGASFSQLLLTIARSRLQAFHRILPVTGIVSGMLLVLATLFSSYQLDEATLASATQPILISLALLISTIVVWCWHIFTHKAPEKVQLSIALLLALASMTSLQGLFALAV | failed
MNPEVTVLMSVYNDKNYLSESIESILNQTFENFEFLIINDASTDGSGELLEEYSKKDKRIRLIHNKNNRGLSYSLAEGVSLAKAPWIARMDADDVSFKDRLAVQMDHVKAHSELDILGSYVIDIDDKGNELEIRKVPTTHKEIANLIWTCPFIHPTVLFKKDSIIKAGSYDRNLRRRQDYDLWFRCLEAKLKFENIDKPLLYYRSTDDYYKKNNFKVQVQQAKMGFAGARRVKAKPIAYIGITVAFIKGILPYHIRKPLSQLLKKVDPRRALEHHHHHH | not failed
MNYECLIGVLSCLLVALPKGNCHSISGLNSTLNLPEIRGDQFLYFGFGSNMLIKRIHIQNPSAVRIGPALLPDYRLDFALESAGWSGSVATIVPTQGDHVWGTLWKIDLSNLPDIDSQEGVSQGIYEPRTVYVKLHGESESTPARAYLLTKQPESNLYELPKDSIPLSRQPSKTYLQCLVKGAIESSVPEDYVQRLRSIKHNGQVNSYLERKLELGGVTL | failed
SKSTKNDVKITALSTSESQIISHMLRLLIEHDTHGKIKPTLVNNLGSSTIQHNALINGDANISGVRYNGTDLTGALKEAPIKDPKKAMIATQQGFKKKFDQTFFDSYGFANTYAFMVTKETAKKYHLETVSDLAKHSKDLRLGMDSSWMNRKGDGYEGFKKEYGFDFGTVRPMQIGLVYDALNTEKLDVALGYSTDGRIAAYDLKVLKDDKQFFPPYAASAVATNELLRQHPELKTTINKLTGKISTSEMQRLNYEADGKGKEPAVVAEEFLKKHHYFD | not failed
MGNLSLGELELTVLYDEERYDIVEQTETVQVDLEGPRGVLTVFRFARPSYEVFVDLTEAGEGSHTVDVEHRGFPGDLAVTVEPRLEHHHHHH | failed
MGAASCEDEELEFKLVFGEEKEAPPLGAGGLGEELDSEDAPPCCRLALGEPPPYGAAPIGIPRPPPPRPGMHSPPPRPAPSPGTWESQPARSVRLGGPGGGAGGAGGGRVLECPSIRITSISPTPEPPAALEDNPDAWGDGSPRDYPPPEGFGGYREAGAQGGGAFFSPSPGSSSLSSWSFFSDASDEAALYAACDEVESELNEAASRFGLGSPLPSPRASPRPWTPEDPWSLYGPSPGGRGPEDSWLLLSAPGPTPASPRPASPCGKRRYSSSGTPSSASPALSRRGSLGEEGSEPPPPPPLPLARDPGSPGPFDYVGAPPAESIPQKTRRTSSEQAVALPRSEEPASCNGKLPLGAEESVAPPGGSRKEVAGMDYLAVPSPLAWSKARIGGHSPIFRTSALPPLDWPLPSQYEQLELRIEVQPRAHHRAHYETEGSRGAVKAAPGGHPVVKLLGYSEKPLTLQMFIGTADERNLRPHAFYQVHRITGKMVATASYEAVVSGTKVLEMTLLPENNMAANIDCAGILKLRNSDIELRKGETDIGRKNTRVRLVFRVHVPQGGGKVVSVQAASVPIECSQRSAQELPQVEAYSPSACSVRGGEELVLTGSNFLPDSKVVFIERGPDGKLQWEEEATVNRLQSNEVTLTLTVPEYSNKRVSRPVQVYFYVSNGRRKRSPTQSFRFLPVICKEEPLPDSSLRGFPSASATPFGTDMDFSPPRPPYPSYPHEDPACETPYLSEGFGYGMPPLYPQTGPPPSYRPGLRMFPETRGTT | not failed
MGFKCGIVGLPNVGKSTLFNALTKAGIEAANFPFCTIEPNTGVVPMPDPRLDQLAEIVKPQRTLPTTMEFVDIAGLVKGASKGEGLGNQFLTNIRETEAIGHVVRCFENDNIIHVSGKVNPADDIEVINTELALADLDTCERAIHRVQKKAKGGDKDAKAELAVLEKCLPQLENAGMLRALDLSAEEKAAIRYLSFLTLKPTMYIANVNEDGFENNPYLDQVREIAAKEGSVVVPVCAAVEADIAELDDEERDEFMQELGLEEPGLNRVIRAGYKLLNLQTYFTAGVKEVRAWTIPVGATAPQAAGKIHTDFEKGFIRAQTISFEDFITYKGEQGAKEAGKMRAEGKDYIVKDGDVMNFLFNV | not failed
MNISLSRVHFPVTTLGPGQRLGLWFQGCSIRCAGCISADTWGPGKHPLPLAQVLDDLQPWLARAEGITLSGGEPFDQPEALLALLRGLRERTGVDILVYSGHSLETLQPLLQQAEGLLDALICDPFEQQQAQTLVLRGSDNQRLIFLTELGRQRLSTYQRPLHHEDRALDVMFDDDGSVWMAGIPRRDDVLRLRDLLHDQGHQLQISAHTSRRRLEHHHHHH | failed
MGYFYVLLAAFLWGLIGPLSRMAFQEGLTPLTVAFYRALLSWIFFLAHAARTGGLRVAPRDLPVFPLFGLLGVALFYGAYQLAVLYGGAALASVLLYTAPAWVALLSWAFLREPPTARSWGAVALTLLGVGLLGLGGGSEVRFGVRAFLFGLASGFFYALHYLLGKLYLGRYATPTFFAYALPVAALALAPWAEFGPLTPRALGALLALSLFSTYGAYLAFYAGLRRLPATVASVVATLEPVVAVVLAYLLFGEVLSPLGYFGALLVILAVLLAVRR | failed
MATDTAERRIAHVRGVTVTAIACLAGVAAAVVSAAVADGAGDTLGLYVLVGGIIVQFPLLRVLEMAGLQLDVDDFGAKDYLYIAFMTFAMWFVCWTVLLTTGASV | failed
MAAPRPGPLRPARGFAPMNNVNGILLVVAAMAAFSIEDMFIKKLSVTVPIGQILLVLGVFCSAAFLTMAVATRKRVFSRAAWSPLLLIRAATEAVSALTFATALSLVDLSTVAAVFQAMPLVVTMGAALFLGEQVGWRRWSAITVGFVGVLMIIRPGMAGFQPAQLLVVASVISVAARDLITRRIDAHVASAVVSFQAYLALILGGAGILLVSGTALVPVEPGHWGPYAGAILFGVLGYYGIVTAMRVGEASVVTPFRYTRLLFSLLAGVLVFGERPDWPTLAGGALIIGSGLYTFLRERRLARELAAVPA | failed
MAQDIIDGINPTRMELLSLKNRTKLAVKGHGLLKEKRDALIKEFFDILDRVKGVREAAERSLKEANEALLEAQIAMGDLAVRKASLSVKESIDVDIKSRSVMGVSVPVTNVKMEERSIIDRGYSFSDTTIQLDEAAKKFEESIKFLIELGEVEKTIFLLAEEIEATKRRVNALEHIMIPRFENTEKYIDMRLQEMERENFVRLKMIRSTIEKKDNEAKEAAIEEEAAEVEA | failed
MEKPDINVAEAWEQYWNKTLVNATPVLWDANVERAVVVDLPRFQSFFDTELPLIDFACGNGTQTKFLSQFFPRVIGFDVSKTALEMASKENTAANISYRLLDGLVPEQAAQIHSEIGDANIYMRTGFHHIPVEKRELLAQSLRTLLGKQGVMYLIELGTGCIEFFNSLLEKYGKLPYELSLVMEHGIRPGIFTTEDIELYFPDFEILSQGESLFQSIHKLPDGNYATPPAFWAVIKRHLEHHHHHH | not failed
MAVEQPTAHAGGQSPAHAGEQSRIHNIGYRNYDGPRLGRAYARRSLYSQSLRGAYGLGRSVKSKVLPMLLFVVMCVPALIMVAVAVATKAKDLPVDYTRYAIIMQAVIGLYVASQAPQSVSRDLRFKTVPLYFSRPIETADYVRAKYAALASAMFILTAAPLLVLYVGALLAKLDFTDQTKGFAQGLVSVALLSLLFAGIGLVISAVTPRRGFGIAAVIAVLTISYGAVSTVQAIADAQNSTSAVPWLGLFSPVTLIDGMQTAFLGASSSFPGEAGPSSAQGVVFLIVVLGLIAGCYGLLMRRYRKVGL | failed
VVENYETQFVTFVESEMEQDLAHDLNHVFRVVKTAKLLSKIEGAMLEVVLPAAYLHDCFSFPKNHPNKAESSRIAADKALEFLNEIGYPNEYHDAIKHAIIAHSFSAKVQPDTLEAKVVQDADRLDALGAIGIARCIQVSTNLGVGLYDATDPFCGTREPNDRVNTVDHFYTKLFKLPEIMHTASAKVEAEKRMKFMKAYLIQLGMEIEPYS | failed
MFRDEDETTPPRAREVERLKKRLYRLKYLAHKYKRAEVVQNALLELSHIATQVSSLEEFYLGVHHHLKQLISADNFFIATLDVNSGAISVPFFADEKDAHPSQLYPEQSLSTLLQQGLTGYVFRTGQTLLCDESKVDELVNAEEIVNLGSPCHLWLGVPIKHEDIVTAVLVVQTYDTNVSYGDIEVELMTFICHHITGVMERLKHQEQLEQAIQQ | failed
MSSQSIDDKFMSITQMKNLIHYVKKNDALSHLCIYILIITGSRFKPVQHLRYEDLNFKKSCIHLNDTKNKYSKRNVKVRIKDLEYIQSVINKHPINQNGYIFHNFINFISYSAINDVLVRFCLKYKYDKYTLKSLRHTHCSYLLAKGISIQYISKRLGHADIHTTLKIYSHLIKEFEDSENSLIEKNLNDLFSDLEHHHHHH | failed
MSQIWFERILRWRKKAQRFLQGRYARFDELNRTLLLTSVVLALINIFTGYLWVRLLILITVAYVYYRFFSKHIHPRLNENQWFILRKQRLMQKVHAFRKRHMTQKEYRYFKCPKCQQSLRAPKGRGTIKVTCSNCQNQFIKKV | failed
